Test results: paper PMC3278457

How the values were obtained:
spinophilin (striatal) = spinophilin (striatal) (UniProt Q6R891); assay: co-IP with spinophilin antibody, striatal extract; conditions: reference: wild-type mice; sites T286
[1] = molecular target: spinophilin (GST fusion fragments) 1-300 (UniProt O35274); assay: GST pull-down from striatal extract; conditions: reference: wild-type mice; sites T286
[2] = molecular target: spinophilin, endogenous in mouse striatal TSF (mouse (endogenous in striatum)) (UniProt Q6R891); assay: co-IP; spinophilin immunoprecipitated with 4 µg goat spinophilin antibody from mouse striatal TSFs (WT or T286A-KI; PND21 or adult); immunoblot

Sequence of UniProt Q6R891 (Q6R891 whole entry, the tested form may be a part): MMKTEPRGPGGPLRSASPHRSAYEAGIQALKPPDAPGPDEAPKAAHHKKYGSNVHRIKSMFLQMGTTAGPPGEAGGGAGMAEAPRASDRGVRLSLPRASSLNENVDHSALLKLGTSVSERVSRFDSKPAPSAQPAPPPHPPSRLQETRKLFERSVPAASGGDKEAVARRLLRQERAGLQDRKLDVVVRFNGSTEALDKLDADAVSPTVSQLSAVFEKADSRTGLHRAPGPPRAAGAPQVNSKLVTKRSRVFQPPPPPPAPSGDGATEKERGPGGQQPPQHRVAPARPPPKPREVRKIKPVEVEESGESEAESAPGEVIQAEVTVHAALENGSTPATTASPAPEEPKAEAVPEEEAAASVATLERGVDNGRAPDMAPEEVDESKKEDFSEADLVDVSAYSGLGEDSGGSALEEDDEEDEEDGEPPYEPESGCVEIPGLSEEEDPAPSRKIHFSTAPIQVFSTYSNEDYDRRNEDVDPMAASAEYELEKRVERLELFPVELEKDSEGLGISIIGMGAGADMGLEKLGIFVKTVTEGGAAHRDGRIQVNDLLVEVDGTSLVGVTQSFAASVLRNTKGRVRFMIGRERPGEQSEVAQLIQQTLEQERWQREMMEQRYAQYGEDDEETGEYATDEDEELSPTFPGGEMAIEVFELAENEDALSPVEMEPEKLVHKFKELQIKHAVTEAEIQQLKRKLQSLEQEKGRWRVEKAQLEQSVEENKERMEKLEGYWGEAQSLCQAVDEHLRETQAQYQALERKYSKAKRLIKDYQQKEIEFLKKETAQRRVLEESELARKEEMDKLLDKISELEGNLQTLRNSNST

Row | Substance | other: reduction relative to wild type (spinophilin (striatal)) | binding against the reference [1] | reduction of CaMKIIα in spinophilin immune complexes, T286A-KI against WT [2] [%]
1 | CaMKIIα (from UniProt P11798) T286A knock-in mice | weaker | weaker | 
2 | CaMKIIα T286A, endogenous in T286A-KI mouse striatum (from UniProt P11798 1-478) (enzyme) |  |  | 50
